These results are taken from publication PMC12236258.

Bounds are passed on as bounds.

The test addresses SpyCatcher003-A49C labelled with Alexa 555 maleimide. Briefly: FRET or BRET; inline mixing cell, SpyTag003-sfGFP (donor) and SpyCatcher003-AF555 (acceptor) each at 10 uM, equimolar, delays 0.02-10 s, emission at 515 nm, double exponential fit; observed rates at one concentration. On the technique in general: BRET reads energy transfer from a luciferase to a nearby fluorophore.

Take SpyTag003-sfGFP: the fast rate of the double exponential FRET decay (observed, 10 uM each) stood at 143 s⁻¹; the percent reduction of the donor fluorescence by FRET (20 ms to 10 s after mixing) is > 50%; the slow rate of the double exponential FRET decay (observed, 10 uM each) worked out at 7 s⁻¹.
